T1: FimD, type 1 pilus assembly platform (usher) (E. coli, UniProt P30130 46-878)
T1 sequence: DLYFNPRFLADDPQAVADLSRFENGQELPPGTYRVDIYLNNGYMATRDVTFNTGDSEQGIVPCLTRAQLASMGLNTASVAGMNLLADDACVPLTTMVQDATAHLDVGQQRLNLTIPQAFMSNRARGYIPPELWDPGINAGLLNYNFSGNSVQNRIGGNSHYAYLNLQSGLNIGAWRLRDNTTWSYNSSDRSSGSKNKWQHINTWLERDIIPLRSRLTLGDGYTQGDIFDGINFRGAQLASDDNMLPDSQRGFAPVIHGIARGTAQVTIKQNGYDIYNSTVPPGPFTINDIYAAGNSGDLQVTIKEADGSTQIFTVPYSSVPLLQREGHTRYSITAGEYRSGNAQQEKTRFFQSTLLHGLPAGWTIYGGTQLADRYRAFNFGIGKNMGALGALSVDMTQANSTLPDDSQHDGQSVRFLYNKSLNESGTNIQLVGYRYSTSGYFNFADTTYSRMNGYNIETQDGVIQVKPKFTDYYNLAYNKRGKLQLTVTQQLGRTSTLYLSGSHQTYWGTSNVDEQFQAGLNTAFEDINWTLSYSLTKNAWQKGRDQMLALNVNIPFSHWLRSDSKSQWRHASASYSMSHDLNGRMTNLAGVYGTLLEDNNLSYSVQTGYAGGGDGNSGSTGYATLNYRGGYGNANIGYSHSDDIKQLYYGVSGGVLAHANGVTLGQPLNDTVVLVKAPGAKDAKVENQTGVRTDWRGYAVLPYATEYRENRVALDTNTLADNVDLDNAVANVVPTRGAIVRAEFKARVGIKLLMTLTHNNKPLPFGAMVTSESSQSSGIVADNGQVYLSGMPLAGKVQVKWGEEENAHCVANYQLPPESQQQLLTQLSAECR

B1: FimI, assembly terminator subunit of the type 1 pilus (natural protein)
chain: GNKWNTTLPGGNMQFQGVIIAETCRIEAGDKQMTVNMGQISSNRFHAVGEDSAPVPFVIHLRECSTVVSERVGVAFHGVADGKNPDVLSVGEGPGIATNIGVALFDDEGNLVPINRPPANWKRLYSGSTSLHFIAKYRATGRRVTGGIANAQAWFSLTYQ
B2: FimCHis, His-tagged type 1 pilus assembly chaperone FimC (natural protein)
chain: GVALGATRVIYPAGQKQEQLAVTNNDENSTYLIQSWVENADGVKDGRFIVTPPLFAMKGKKENTLRILDATNNQLPQDRESLFWMNVKAIPSMDKSKLTENTLQLAIISRIKLYYRPAKLALPPDQAAEKLRFRRSANSLTLINPTPYYLTVTELNAGTRVLENALVPPMGESTVKLPSDAGSNITYRTINDYGALTPKMTGVME
notes: source: E. coli BL21(DE3) (pFimCHis-cyt), purified (HisTrap, Source 30S); also co-expressed with FimD and FimH in E. coli Tuner (pETS1001) and purified as FimDCH
B3: FimC, type 1 pilus assembly chaperone (untagged) (natural protein)
chain: GVALGATRVIYPAGQKQEQLAVTNNDENSTYLIQSWVENADGVKDGRFIVTPPLFAMKGKKENTLRILDATNNQLPQDRESLFWMNVKAIPSMDKSKLTENTLQLAIISRIKLYYRPAKLALPPDQAAEKLRFRRSANSLTLINPTPYYLTVTELNAGTRVLENALVPPMGESTVKLPSDAGSNITYRTINDYGALTPKMTGVME
notes: source: E. coli BL21(DE3) (pFimC-cyt), purified (Q Sepharose, Source 30S, Phenyl Sepharose); also co-expressed with FimF or FimG in E. coli HM125 and purified from periplasmic extract as FimFC or FimGC

What was measured:
Test in all cases: cryo-EM structure
[1] = molecular target: T1, FimD, type 1 pilus assembly platform …; details: both partners purified
[2] = molecular target: B2; details: both partners purified
cryo-EM structure = molecular target: the molecule itself
[3] = molecular target: B1; details: both partners purified
[4] = molecular target: B3; details: both partners purified

Row | Binder | binding result [1] | binding result [2] | binding result (cryo-EM structure) | binding result [3] | binding result [4]
1 | B1 | binds | binds | binds | – | –
2 | B2 | binds | – | – | – | –
3 | B3 | binds | – | – | – | –
4 | FimA, main subunit of the type 1 pilus rod (natural protein, also called FimAn; FimAn-1) AATTVNGGTVHFKGEVVNAACAVDAGSVDQTVQLGQVRTASLAQEGATSSAVGFNIQLNDCDTNVASKAAVAFLGTAIDAGHTNVLALQSSAAGSATNVGVQILDRTGAALTLDGATFSSETTLNNGTNTIPFQARYFATGAATPGAANADATFKVQYQ | binds | binds | binds | binds | binds

From article PMC12122975, “Structures of the Escherichia coli type 1 pilus during pilus rod assembly and after assembly termination” (Nature Communications, 2025)
